Data published in patent publication US20100197575A1, “SOLUBLE INTERLEUKIN-20 RECEPTOR” (ZymoGenetics, Inc., published 2010).

Columns and labels:
[1] = biological target: IL-20RA/IL-20RB heterodimeric receptor (human)
[2] = biological target: IL-20RA/IL-20RB heterodimeric receptor (human); remark: listed apart in the source
[3] = biological target: IL-20RA/IL-20RB heterodimeric receptor (human); remark: listed apart in the source
[4] = biological target: IL-20RA/IL-20RB heterodimeric receptor (human); remark: listed apart in the source
[5] = biological target: IL-20RA/IL-20RB heterodimeric receptor (human); remark: listed apart in the source
[6] = biological target: T1, 125I-labeled IL-20 (Homo sapiens (Human), UniProt Q9NYY1, 125I-labeled); test: radiolabeled ligand binding to BHK cells stably transfected with IL-20RA and IL-20RB
T1 sequence: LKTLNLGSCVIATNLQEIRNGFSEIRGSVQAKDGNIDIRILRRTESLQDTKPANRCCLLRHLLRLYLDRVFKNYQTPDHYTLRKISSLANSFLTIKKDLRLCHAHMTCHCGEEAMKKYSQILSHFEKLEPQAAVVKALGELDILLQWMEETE
Protocol: The specificity and affinity of IL-20 for its receptor was determined using BHK cells stably transfected with IL-20RA, IL-20RB or both receptor subunits. […] Binding of ¹²⁵I-labeled IL-20 was eliminated in the presence of 100-fold excess of unlabeled IL-20 but not with 100-fold excess of the unrelated cytokine, IL-21.

In the case of “Interleukin-20 (IL-20) (from UniProt Q9NYY1) (ligand)”, the half maximal response, SRE/STAT luciferase reporter in HaCaT cells [1] is reported as 2.3 nM, the half-maximal IL-20 concentration, STAT3 nuclear translocation in HaCaT cells [2] is reported as 7 nM and the half-maximal response, STAT-luciferase in BHK cells transfected with both receptor subunits [3] is reported as 5.7 pM. For the same molecule, the half maximal response, proliferation of BaF3 cells co-transfected with IL-20RA and IL-20RB [4] was 3.4 pM, the proliferation of BaF3 cells co-transfected with IL-20RA and IL-20RB [4] was 1.1 pM and the half-maximal response, luciferase reporter in HaCaT cells, IL-20 in combination with a submaximal dose of IL-1beta [5] was 0.5 nM.

B1: IL-20RA/IL-20RB heterodimeric receptor (receptor)
chain 1: VPCVSGGLPKPANITFLSINMKNVLQWTPPEGLQGVKVTYTVQYFIYGQKKWLNKSECRNINRTYCDLSAETSDYEHQYYAKVKAIWGTKCSKWAESGRFYPFLETQIGPPEVALTTDEKSISVVLTAPEKWKRNPEDLPVSMQQIYSNLKYNVSVLNTKSNRTWSQCVTNHTLVLTWLEPNTLYCVHVESFVPGPPRRAQPSEKQCARTLKDQSSEFKAKIIFWYVLPISITVFLFSVMGYSIYRYIHVGKEKHPANLILIYGNEFDKRFFVPAEKIVINFITLNISDDSKISHQDMSLLGKSSDVSSLNDPQPSGNLRPPQEEEEVKHLGYASHLMEIFCDSEENTEGTSFTQQESLSRTIPPDKTVIEYEYDVRTTDICAGPEEQELSLQEEVSTQGTLLESQAALAVLGPQTLQYSYTPQLQDLDPLAQEHTDSEEGPEEEPSTTLVDWDPQTGRLCIPSLSSFDQDSEGCEPSEGDGLGEEGLLSRLYEEPAPDRPPGENETYLMQFMEEWGLYVQMEN
chain 2: DEVAILPAPQNLSVLSTNMKHLLMWSPVIAPGETVYYSVEYQGEYESLYTSHIWIPSSWCSLTEGPECDVTDDITATVPYNLRVRATLGSQTSAWSILKHPFNRNSTILTRPGMEITKDGFHLVIELEDLGPQFEFLVAYWRREPGAEEHVKMVRSGGIPVHLETMEPGAAYCVKAQTFVKAIGRYSAFSQTECVEVQGEAIPLVLALFAFVGFMLILVVVPLFVWKMGRLLQYSCCPVVVLPDTLKITNSPQKLISCRREEVDACATAVMSPEELLRAWIS
B1 gave a Kd [6] of about 1.5 nM.
